The source of these data is US20240122909A1, “TREATMENTS OF HEREDITARY ANGIOEDEMA” (KALVISTA PHARMACEUTICALS LIMITED, priority 2021, published 2024).

For series [1] the following is noted: background, literature or label; cited from earlier work.
For series [2] the following is noted: phase 1 studies, repeat dosing; cited from earlier work.
Another series concerns the target plasma kallikrein (Homo sapiens, UniProt P03952). Put plainly: Inhibition of enzyme activity of pre-activated plasma (compound added after DXS). It is filed as biochemical. The note with it: added 3.5 minutes post DXS; compound 300, 1000, 3000 nM; C1-INH 3000 nM. The procedure: The ability of the compound to inhibit the enzyme activity of pre-activated plasma was assessed by addition of the compound after DXS stimulation. Aliquots of plasma (20 μL) were mixed with a 2.5 μL solution containing […] fluorogenic substrate (H-DPro-Phe-Arg-AFC) and a 2.5 μL solution of dextran sulphate (DXS; 100 μg/mL) which acted as an activator of the plasma kallikrein-kinin pathway. Enzyme activity was immediately measured by monitoring the accumulation of fluorescence liberated from the substrate by substrate cleavage over 16 minutes. At 3.5 minutes post DXS addition 5 μl of inhibitors or water control are were added into each well. The compound was tested at concentrations of 300, 1000 and 3000 nM. C1-INH at a concentration of 3000 nM and vehicle controls were also included.

Sequence of plasma kallikrein (P03952 391-638 limits assumed): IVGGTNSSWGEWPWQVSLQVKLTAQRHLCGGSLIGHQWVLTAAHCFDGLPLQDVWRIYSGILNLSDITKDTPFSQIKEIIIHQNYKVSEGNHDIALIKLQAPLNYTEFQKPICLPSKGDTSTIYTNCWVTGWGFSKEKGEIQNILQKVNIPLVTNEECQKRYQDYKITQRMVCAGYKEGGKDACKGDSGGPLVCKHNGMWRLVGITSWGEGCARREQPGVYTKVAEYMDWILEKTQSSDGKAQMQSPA
Sequence of plasma kallikrein (P03952 20-390 partner limits assumed): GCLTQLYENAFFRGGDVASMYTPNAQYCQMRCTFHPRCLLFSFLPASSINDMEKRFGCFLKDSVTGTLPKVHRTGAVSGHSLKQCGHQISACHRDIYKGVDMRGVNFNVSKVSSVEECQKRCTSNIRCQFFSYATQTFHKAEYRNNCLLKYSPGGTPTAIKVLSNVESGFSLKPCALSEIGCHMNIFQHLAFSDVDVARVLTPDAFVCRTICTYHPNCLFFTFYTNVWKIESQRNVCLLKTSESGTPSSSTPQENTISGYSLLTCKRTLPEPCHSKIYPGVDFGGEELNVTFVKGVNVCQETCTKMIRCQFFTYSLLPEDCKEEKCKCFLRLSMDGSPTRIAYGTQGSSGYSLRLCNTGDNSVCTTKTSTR

Consider Ecallantide, for which the reported adverse reactions result in series [1] is reported as “risk of anaphylactic reactions”.

For the molecule `COCc1nn(Cc2ccc(Cn3cc(F)ccc3=O)cc2)cc1C(=O)NCc1nccc(OC)c1F` [KVD824, 1-({4-[(5-fluoro-2-oxopyridin-1-yl)methyl]phenyl}methyl)-N-[(3-fluoro-4-methoxypyridin-2-yl)methyl]-3-(methoxymethyl)pyrazole-4-carboxamide], the pharmacokinetic profile entry in series [2] was “consistent pharmacokinetic profile over repeat dosing”.

As to `N#Cc1cccc([C@@H](NCC2CC2)c2ccc(F)c(NC(=O)c3cc(C(F)(F)F)nn3-c3cccc(CN)c3)c2)c1` [Berotralstat], the reported adverse reactions result in series [1] is reported as “higher doses were associated with more gastrointestinal adverse effects”.

For “C1-INH: C1 inhibitor (C1-INH, Sigma Cat #E0518), therapeutic benchmark for HAE [Compound C1-INH]”, the “inhibition of enzyme activity after activation of plasma” value with plasma kallikrein is listed as “slower action”.

B1: lanadelumab: recombinant fully human IgG1 kappa light chain monoclonal antibody, active substance of Takhzyro® (antibody, chains of the INN, looked up, V domains shown)
VH: EVQLLESGGGLVQPGGSLRLSCAASGFTFSHYIMMWVRQAPGKGLEWVSGIYSSGGITVYADSVKGRFTISRDNSKNTLYLQMNSLRAEDTAVYYCAYRRIGVPRRDEFDIWGQGTMVTVSS
VL: DIQMTQSPSTLSASVGDRVTITCRASQSISSWLAWYQQKPGKAPKLLIYKASTLESGVPSRFSGSGSGTEFTLTISSLQPDDFATYYCQQYNTYWTFGQGTKVEIK
In the case of B1, in series [1], the reported adverse reactions entry is “hypersensitivity, injection site pain, injection site erythema, and injection site bruising”.
